# Test results reported in the nanobody polyreactivity screen of Harvey et al. (2022).
# Experiment: yeast display, Sf9 membrane polyspecificity reagent, FACS + sequencing; frameworks hold sequencing errors
# In short: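 A synthetic nanobody library was expressed on Saccharomyces cerevisiae BJ5465 by galactose induction for 36–48 hours. The library was stained for 1 hour at 4 °C with 10% biotinylated, detergent-solubilized Sf9 membrane reagent and enriched with streptavidin microbeads before FACS. Low and high (top ~1%) gates were set on anti-HA fluorescence for expression and streptavidin fluorescence for reagent binding, and each polyreactivity label reflects the gate of origin.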
row,Sequence,polyreactivity (PSR sort gate)
1,QVQLVESGGGLVQAGGSLRLSCAASGRNFGTNAMGWYRQAPGKERELVASIDLSADSTYYADSVKGRFTISRDNAKNTVYLQMNSLKPEDTAVYYCNKDGYPWPPNLDYWGQGTQVTVSS,low polyreactivity
2,QVQLVESGGGLVQAGGSLRLSCAASGRNFKYNAMGWYRQAPGKERELVAVITSGGSTYYADSVKGRFTISRDNAKNTVYLQMNSLKPEDTAVYYCAKKYYKVHKFDYWGQGTQVTVSS,low polyreactivity
3,QVQLVESGGGLVQAGGSLRLSCAASGRNFPLNGMGWYRQAPGKERELVAAISYRGGSTYYADSVKGRFTISRDNPKNTVYLQMNSLKPEDTAVYYCAADYVSRRYYYWGQGTQVTVSS,high polyreactivity
4,QVQLVESGGGLVQAGGSLRLSCAASGRNFRDYDMGWYRQAPGKERELGAAITYDGYSTYYADSVKGRFTISRDNAKNTVYLQMNSLKPEDTAVYYCNADDDVTYFTYYSGGLYYWGQGTQVTVSS,low polyreactivity
5,QVQLVESGGGLVQAGGSLRLSCAASGRNFRRYAMGWYRQAPGKERELVATISGSGTSTYYADSVKGRFTISRDNAKNTVYLQMNSLKPEDTAVYYCAAGNPYYRTSQYYHWGQGTQVTVSS,high polyreactivity
6,QVQLVESGGGLVQAGGSLRLSCAASGRNFRSYVMGWYRQAPGKERELVASIRNRGGTTYYADSVKGRFTISRDNAKNTVYLQMNSLKPEDTAVYYCNAAPARTVYAQSSYVLYDYWGQGTQVTVSS,low polyreactivity
7,QVQLVESGGGLVQAGGSLRLSCAASGRNFRTNAMGWYRQAPGKERELVAAITWRGGNTYYADSVKGRFTISRDNAKNTVYLQMNSLKPEDTAVYYCATAYRYYPSPYDYWGQGTQVSVSS,high polyreactivity
8,QVQLVESGGGLVQAGGSLRLSCAASGRNFSANAMGWYRQAPGKEREMVATISSGGRTNYADSVKGRFTISRDNAKNTVYVQMNSLKPEDTAVYYCAKRGPYNRWYGRYDYWGQGTQVTVSS,low polyreactivity
9,QVQLVESGGGLVQAGGSLRLSCAASGRNFSHNAMGWYRQAPGKERELVAAISSRAGRTYADSVKGRFTISRDNAKYTVYLQMNSLKQEDTGVYYCAVRSKGKDVGYWGQGTQVTVSS,high polyreactivity
10,QVQLVESGGGLVQAGGSLRLSCAASGRNFSRNAMGWYRQAPGKERELVAAISSGGRTKYADSVKGRFTISRDNAKNTVYLQMNSLKPEDTAVYYCAATDPRSWYGRGRYDYWGQGTQVTVSS,high polyreactivity
11,QVQLVESGGGLVQAGGSLRLSCAASGRNFSSYALGWYRQAPGKERELVAAIRYDAGSTYYADSVKGRFTISRDNAKNTVYLQMNSLKPEDTAVYYCAAGIYSSRHSPYGYWGQGTQVTVSS,high polyreactivity
12,QVQLVESGGGLVQAGGSLRLSCAASGRNFYTYTMGWYRQAPGKERELVAAISKSGTSTYYADSVKGRFTISRDNAKNTVYLQMTSLKPEDSAVYYCAARAYYARFLMGYWGQGTQVTVSS,high polyreactivity
13,QVQLVESGGGLVQAGGSLRLSCAASGRNFYYYAMGWSRQAPGKERELVAAISWSGGSTRYADSVKGRFTISRDNPKNTVYLQMNSLKPEDTAVYYCAAEPDYWVGWIRYDYWGQGTQVTVSS,low polyreactivity
14,QVQLVESGGGLVQAGGSLRLSCAASGRNFYYYTMGWYRQAPGKERALVASISQSGARTYYADSVKGRFTISRDNSKNTVYLQMNSLKPVYTAVYYCNAVGTGGYHYWGQGTQVTVSS,high polyreactivity
15,QVQLVESGGGLVQAGGSLRLSCAASGRNIHFNAMGWYRQAPGKERELVAGITFIGTSTYYADSVKGRFTISRDNAKNTVYLQMNSLKPDDTAVYYFAASAVALPYYAGDYDYWGQATQVTVSS,low polyreactivity
16,QVQLVESGGGLVQAGGSLRLSCAASGRNIYSNAMGWYRQAPGKERELVAAIRWRDGATYYADSVKGRFTISRDNAKNTVYLQMNSLKPEDTAVYYCAAVYWGEEYEYWGQGTQVTVSS,low polyreactivity

row,Sequence,polyreactivity (PSR sort gate)
1,QVQLVESGGGLVQAGGSLRLSCAASGRNLIAYAMGWYRQAPGKEREFVAAIRADDGRTYYADSVKGRFTISRDNAKITVYLQMTSLKPEDTAVYYCAAEWYWLHSWFDYWGQGTQVTVSS,high polyreactivity
2,QVQLVESGGGLVQAGGSLRLSCAASGRNLLGNAMGGYRQAPGKEREFVAAISYRGGSTYYADSVKGRFTISRDNEKNTVYLQMNSLKPVDNAVPYCAASSLKYSRFDYGGQGTQVTVSS,low polyreactivity
3,QVQLVESGGGLVQAGGSLRLSCAASGRNLYYNAMGWYRHAPGKERELVAAITFRGGSTSYADSVKGRFTISRDNAKNTVYLQMNSLKPEDTAVYYCAAGYTWRQSWYPFDYWGQGTQVTVSS,high polyreactivity
4,QVQLVESGGGLVQAGGSLRLSCAASGRPFDSNAMGWYRQGPGKERELVAAISYGCGTTHYADSVKGRFTISRDNAKNTVYLQMNSLKPEDTAVYYCAADPELQWESVTIGEYDYWGQGTQVTVSS,low polyreactivity
5,QVQLVESGGGLVQAGGSLRLSCAASGRPFVSYALGWYRQAPGKERELVAVITGGTGNTYYADSVKGRFTISRDNAKNTVYLQMNSLIPEDTAVYYCNARGGYYKFRYPLYYWGQVTQVTVSS,high polyreactivity
6,QVQLVESGGGLVQAGGSLRLSCAASGRSFGTNAMVSYIQAPGKEREFVAAIRKSGATTYYADSVKGRFTISRDNAKNTVYLQMNSLKPDDTAVYYCAADFFYYGKWYSGYYWGQGTQVTVSS,high polyreactivity
7,QVQLVESGGGLVQAGGSLRLSCAASGRSFTSNTMGWYRPAPGKERELVAAITSSGGSMYYADSVKGRFTISRDNANNTVYLQMNSLKPEDTAVYYCAADTIGYHYWYDYWGQGTQVTVSS,low polyreactivity
8,QVQLVESGGGLVQAGGSLRLSCAASGRSFVLYTMGWSRQAPGKEREWVAAISGSGGRTYYADSVKGRFTISRDHAKNTVNLQMNSLKPEDTAVYYCAAYGQGLPLYGYWGPGTQVTVSS,high polyreactivity
9,QVQLVESGGGLVQAGGSLRLSCAASGRSFWKYAMGWCRQAPGKERELVAAITSDGSTYYADSVKGRFTISRDNAKNTVYFQMNSLKPEDTADYYCAAQQWFEYDYWGQGTQVTVSS,low polyreactivity
10,QVQLVESGGGLVQAGGSLRLSCAASGRTCDRNTMGWYRQAPGKERELVAAISGSSARTYYADSVKGRFTISRDNAKNTVYLQMNSLKPEDTAVYYCNAEYGARAQHYEGDSWGQGTQVTVSS,high polyreactivity
11,QVQLVESGGGLVQAGGSLRLSCAASGRTCWSYAMGWYRQAPGKEREVVATITGRGGSTYYADSVKGRFTISRDNAKNTVYLQRNSLKPEDTAVYYCAVRSKYRRTFGSWGQGTQVTVSS,high polyreactivity
12,QVQLVESGGGLVQAGGSLRLSCAASGRTFAANTMGWYRQAPGKERELVAAISSSGGSTSYADSVKGRFTISRDNAKNTVYLQMNSLKPEDTAVYYCNTLLRRDFNYWGQGTQVTVSS,high polyreactivity
13,QVQLVESGGGLVQAGGSLRLSCAASGRTFAAYAMGWYRPAPGKESELVAAISSSSGNTYYADSVKGRFTISRDNAKNTVYLQMNSLKPEDTAVYYCNAQRRFNANYWYDYWGQGTQVTVSS,high polyreactivity
14,QVQLVESGGGLVQAGGSLRLSCAASGRTFAAYAMGWYRQAPGKEREFVADITYSGGSTTYADSVKGRFTISRDNAKNTVYLQMNSLKPEDTAVYYCNKLAYTRGWRGFVWYDYWGQGTQVTVSS,low polyreactivity
15,QVQLVESGGGLVQAGGSLRLSCAASGRTFAAYAMGWYRQAPGKERELGAAISIGGSTNYADSVKGRFTISRDNAKNTVYLQMNSLKPEDSAVYYCAAPWYRGGTTESYYWGQGTQVTVSS,high polyreactivity
16,QVQLVESGGGLVQAGGSLRLSCAASGRTFAAYAMGWYRQAPGKERELVAGITSSSVRTYYADSVKGRFTISRDNAKNTVYLQMNSLKPEDTAVYYCNARADGSSSRWRPYSKFYYWGQGTQVTVSS,low polyreactivity
